B1: Rb I680T: Rb mutant from COSMIC database (protein)
chain: MVFTLEDFVGDWEQTAAYNLDQVLEQGGVSSLLQNLAVSVTPIQRIVRSGENALKIDIHVIIPYEGLSADQMAQIEEVFKVVYPVDDHHFKVILPYGTLVIDGVTPNMLNYFGRPYEGIAVFDGKKITVTGTLWNGNKIIDERLITPDGSMLFRVTINSGSSGGGGSGGGGSSGGAQGNSNTIQQLMMILNSASDQPSENLISYFNNCTVNPKESILKRVKDIGYIFKEKFAKAVGQGCVEIGSQRYKLGVRLYYRVMESMLKSEEERLSIQNFSKLLNDNIFHMSLLACALEVVMATYSRSTSQNLDSGTDLSFPWILNVLNLKAFDFYKVIESFIKAEGNLTREMIKHLERCEHRIMESLAWLSDSPLFDLIKQSKDREGPTDHLESACPLNLPLQNNHTAADMYLSPVRSPKKKGSTTRVNSTANAETQATSAFQTQKPLKSTSLSLFYKKVYRLAYLRLNTLCERLLSEHPELEHITWTLFQHTLQNEYELMRDRHLDQIMMCSMYGICKVKNIDLKFKIIVTAYKDLPHAVQETFKRVLIKEEEYDSIIVFYNSVFMQRLKTNILQYASTRPPTLSPIPHIPRSPYKFPSSPLRIPGGNIYISPLKSPYKISEGLPTPTKMTPRSRILVSIGESFGTSEKFQKINQMVCNSDRVLKRSAEGSNPPKPLKKLRFDIEGSDEADGSKHLPGESKFQQKLAEMTSTRTRMQKQKMNDSMDTSNKEEK
B2: Rb A488V: Rb mutant from COSMIC database (protein, UniProt P06400 2-928, looked up, variant A488V)
Retinoblastoma-associated …: PPKTPRKTAATAAAAAAEPPAPPPPPPPEEDPEQDSGPEDLPLVRLEFEETEEPDFTALCQKLKIPDHVRERAWLTWEKVSSVDGVLGGYIQKKKELWGICIFIAAVDLDEMSFTFTELQKNIEISVHKFFNLLKEIDTSTKVDNAMSRLLKKYDVLFALFSKLERTCELIYLTQPSSSISTEINSALVLKVSWITFLLAKGEVLQMEDDLVISFQLMLCVLDYFIKLSPPMLLKEPYKTAVIPINGSPRTPRRGQNRSARIAKQLENDTRIIEVLCKEHECNIDEVKNVYFKNFIPFMNSLGLVTSNGLPEVENLSKRYEEIYLKNKDLDARLFLDHDKTLQTDSIDSFETQRTPRKSNLDEEVNVIPPHTPVRTVMNTIQQLMMILNSASDQPSENLISYFNNCTVNPKESILKRVKDIGYIFKEKFAKAVGQGCVEIGSQRYKLGVRLYYRVMESMLKSEEERLSIQNFSKLLNDNIFHMSLLVCALEVVMATYSRSTSQNLDSGTDLSFPWILNVLNLKAFDFYKVIESFIKAEGNLTREMIKHLERCEHRIMESLAWLSDSPLFDLIKQSKDREGPTDHLESACPLNLPLQNNHTAADMYLSPVRSPKKKGSTTRVNSTANAETQATSAFQTQKPLKSTSLSLFYKKVYRLAYLRLNTLCERLLSEHPELEHIIWTLFQHTLQNEYELMRDRHLDQIMMCSMYGICKVKNIDLKFKIIVTAYKDLPHAVQETFKRVLIKEEEYDSIIVFYNSVFMQRLKTNILQYASTRPPTLSPIPHIPRSPYKFPSSPLRIPGGNIYISPLKSPYKISEGLPTPTKMTPRSRILVSIGESFGTSEKFQKINQMVCNSDRVLKRSAEGSNPPKPLKKLRFDIEGSDEADGSKHLPGESKFQQKLAEMTSTRTRMQKQKMNDSMDTSNKEEK
B3: Rb V654M: Rb mutant from COSMIC database (protein, UniProt P06400 2-928, looked up, variant V654M)
Retinoblastoma-associated …: B2 Retinoblastoma-associated … with V487A, V653M
B4: Rb R698W: Rb mutant from COSMIC database (protein, UniProt P06400 2-928, looked up, variant R698W)
Retinoblastoma-associated …: B2 Retinoblastoma-associated … with V487A, R697W
B5: Rb E440K: Rb mutant from COSMIC database (protein, UniProt P06400 2-928, looked up, variant E440K)
Retinoblastoma-associated …: B2 Retinoblastoma-associated … with E439K, V487A
B6: Rb R798Q: Rb mutant from COSMIC database (protein, UniProt P06400 2-928, looked up, variant R798Q)
Retinoblastoma-associated …: B2 Retinoblastoma-associated … with V487A, R797Q
B7: Rb R621S: Rb mutant from COSMIC database (protein, UniProt P06400 2-928, looked up, variant R621S)
Retinoblastoma-associated …: B2 Retinoblastoma-associated … with V487A, R620S
B8: Rb R798W: Rb mutant from COSMIC database (protein, UniProt P06400 2-928, looked up, variant R798W)
Retinoblastoma-associated …: B2 Retinoblastoma-associated … with V487A, R797W
B9: Rb L665R: Rb mutant from COSMIC database (protein, UniProt P06400 2-928, looked up, variant L665R)
Retinoblastoma-associated …: B2 Retinoblastoma-associated … with V487A, L664R
B10: Rb I724N: Rb mutant from COSMIC database (protein, UniProt P06400 2-928, looked up, variant I724N)
Retinoblastoma-associated …: B2 Retinoblastoma-associated … with V487A, I723N
B11: Rb R656W: Rb mutant from COSMIC database (protein, UniProt P06400 2-928, looked up, variant R656W)
Retinoblastoma-associated …: B2 Retinoblastoma-associated … with V487A, R655W

Positions count from the first letter of the chain named. Names and notes keep the numbering of the source.

E2F1/Dp-1 heterodimer, sequence (Q01094 58-437 limits assumed): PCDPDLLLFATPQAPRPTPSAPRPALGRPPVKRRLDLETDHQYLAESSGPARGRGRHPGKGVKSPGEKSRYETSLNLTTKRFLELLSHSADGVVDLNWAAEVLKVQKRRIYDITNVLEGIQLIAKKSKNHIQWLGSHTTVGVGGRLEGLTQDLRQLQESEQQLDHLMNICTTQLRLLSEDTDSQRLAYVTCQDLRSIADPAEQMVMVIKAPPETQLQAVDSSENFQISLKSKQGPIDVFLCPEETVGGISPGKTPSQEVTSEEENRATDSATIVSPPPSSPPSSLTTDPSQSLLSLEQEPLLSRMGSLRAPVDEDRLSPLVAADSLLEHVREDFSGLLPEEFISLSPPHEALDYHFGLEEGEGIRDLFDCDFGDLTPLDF
E2F1/Dp-1 heterodimer, sequence (Q14186 whole entry, further chain): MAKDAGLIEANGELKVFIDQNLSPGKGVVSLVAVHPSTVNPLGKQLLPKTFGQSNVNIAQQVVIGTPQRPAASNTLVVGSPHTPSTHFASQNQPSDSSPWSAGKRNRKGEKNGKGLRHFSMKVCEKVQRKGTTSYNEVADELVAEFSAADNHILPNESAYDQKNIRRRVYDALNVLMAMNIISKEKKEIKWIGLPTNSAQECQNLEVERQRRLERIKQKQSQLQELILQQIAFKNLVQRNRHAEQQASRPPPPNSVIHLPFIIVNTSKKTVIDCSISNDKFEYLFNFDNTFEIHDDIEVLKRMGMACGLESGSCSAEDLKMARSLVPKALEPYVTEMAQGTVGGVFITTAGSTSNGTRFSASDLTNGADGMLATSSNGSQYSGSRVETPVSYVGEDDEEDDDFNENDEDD

The test system of the first experiment is E2F1/Dp-1 heterodimer. The experiment is described as follows: Rb activity assay (LB-Rb with E2F1-SB, DP1 split luciferase). The arrangement: key to Observed activity: N—no activity; A—active as WT; R—reduced activity compared to the WT. The note with it: Rb mutants. It counts as cell-based, human. An excerpt:
An assay that could measure the interaction between Rb, E2F1, and Dp-1 was developed. Since Dp-1 forms a heterodimer with E2F1 and that interaction is crucial for Rb/E2F1 binding, the assay was comprised of three components. When two proteins (Rb and E2F1) are in close proximity or in complex, a light signal was observed. For the purposes of the current assay, split-luciferase complementation was used to measure the interaction between Rb and E2F1. The NanoBiT assay system by Promega (Madison, Wis.; Dixon et al., 2015, ACS ChemBiol) was used in our split luciferase complementation design.
FIG. 16 depicts the design of a signal system to measure Rb activity. Under basal conditions inside the cell, Rb was active and interacted with the E2F1/Dp-1 heterodimer. For this assay design, cDNAs of Rb linked to different parts of the luciferase protein, either termed as the “Small BiT” (SB), or “Large BiT” (LB) and E2F1 linked to the opposite portion of the luciferase protein were created. When Rb and E2F1/Dp-1 bind, the NanoBiT parts of the luciferase form a complex and emitted a light signal when the luciferase (NanoGlo) substrate was added.
Using the described assay design, HEK293 CDK DKO cells were transiently transfected with different combinations of SB-Rb or LB-Rb and E2F1-LB or E2F1-SB components containing C-terminal and N-terminal constructs (FIG. 17). Relative intensities generated are presented in FIG. 17 as relative luminescence units (RLU). The data represents a sample experiment where each condition was performed in triplicate and represent mean+SD.
The LB-Rb and E2F1-SB with Dp-1 were tested for Rb activity using known Rb null mutants: R661W and C706F (FIG. 18A). […] Rb in-frame (del35) and out-of frame (del1) deletion mutants (FIG. 18B) were constructed and the observed luciferase activity was close to 0, in particular for del1 mutant, because Rb-E2F1 binding was destroyed.
Within the provided assay design, stable cell lines using the HEK293 CDK DKO cell parent line expressing E2F1-SB and Dp-1 were produced. After selection and screening for positive clones using an LB-Rb-mediated increase in signal, four stable single cell clones were selected and evaluated using different Rb mutants (FIGS. 19A and 19B). The response to E2F1 interaction was also checked by using the plasmid and linear form of DNA. Cell line #37 was selected for all our experiments in assay development due to its favorable response.
The conditions of the assay were further optimized by analyzing different cell numbers and Rb concentrations (FIG. 20). Based on the data, it was decided to use 0.2×10^6 cells/ml and 70 ng of DNA in the assay.
Known null and out/in-frame deletion mutants disrupting E2F1 binding and unknown COSMIC mutants were created to examine the ability of the assay to detect variants in Rb that affect function. We transfected WT or mutated Rb using similar conditions as previously indicated (FIG. 20). […] In addition, the null C706F and deletion (del1) mutants presented a signal close to zero as expected for loss of function mutants that disrupt E2F1 interaction. […] This confirmed that the assay was capable of determining the relative activity level of Rb mutants. The data is provided in Luminescence (RLU) of a single experiment with each condition performed in triplicate and represent average+SD.
For the molecule B1, the Observed activity result is “R”.
Take B2: the Observed activity entry is listed as “R”.
As to B3, the Observed activity result is on record as “A”.
On to B4, for which the Observed activity result is listed as “N”.
For the molecule B5, the Observed activity result was “R”.
For B6, the Observed activity result is on record as “A”.
As for B7, the Observed activity entry was “A”.
As for B8, the Observed activity result is reported as “A”.
With B9, the Observed activity entry is “N”.
For the molecule B10, the Observed activity entry was “N”.
Consider B11, for which the Observed activity result is “A”.

The experiment is the same for the next values; noted with them: Rb mutants, activity relative to WT.
For the molecule B1, the “% (/wt)” value worked out at 32%.
B2: the “% (/wt)” value is given as 51%.
In the case of B3, the “% (/wt)” value was 132%.
For the molecule B4, the “% (/wt)” value was 6.4%.
As for B5, the “% (/wt)” value is recorded as 47%.
Same read-out and setting: for B6 the value was 92%; for B7, 124%.
Take B8: the “% (/wt)” value came out at 120%.
On to B9, for which the “% (/wt)” value came out at 5%.
Take B10: the “% (/wt)” value is recorded as 7.4%.
As to B11, the “% (/wt)” value turned out to be 79%.

The subject of the next experiment is Rb/E2F1-Dp-1 complex. The experiment is described as follows: CDK6 mutant activity / drug resistance in NanoBiT assay, stable cell line #11. It counts as cell-based, human. The note with it: CDK6 mutants, compared to the WT (being 100%). As for the experimental part: A linear expression cassette of mutated CDK4 or CDK6 was generated by PCR mediated overlapping extension method. A pair of forward and reverse primers containing the targeted mutations was designed. The mutated codon was located in the middle of a primer flanked by 18-21 nucleotides on each side. Two PCRs (named as PCR #1 and PCR #2 in FIG. 1) were performed using UF-CMV forward and mutated reverse primers, or mutated forward and BGH-UR primers. The PCR products were cleaned up by ExoSAP-IT® (Affymetrix) to remove unconsumed dNTPs and primers. The treated PCR products were mixed together followed by dilution with water. A second round of PCR was performed using the diluted PCR mixture, and the UF and UR primers (FIG. 1). The amplified products were gel-purified. The DNA concentration was quantitated by the optical density at 260 nm using Nanodrop. The targeted mutations were incorporated in the CDK4 or CDK6 genes during the PCR mediated overlapping extension method. The introduced mutations were confirmed by the DNA sequencing.
To examine the ability of the assay to detect variants in CDK4 or CDK6 that affect function, kinase dead mutants and COSMIC (Catalogue Of Somatic Mutations in cancer) unknown mutants were created. For comparison, hyperactive CDK4 or CDK6 mutants known to be hyperactive due to less binding to natural inhibitor p16 were also created. The mutations in CDK4 or CDK6 were created by site-directed mutagenesis. WT or mutated CDK4 or CDK6 along with the CyclinD1 and SB-Rb were co-transfected, under similar conditions as previously indicated (see FIG. 9).
Computer modeling was used to reveal the drug-binding pocket and predict drug-resistant mutants. The mutations in CDK4 and CDK6 were created by site-directed mutagenesis. WT or mutated CDK4 or CDK6 along with the CyclinD1 and SB-Rb was co-transfected into #11 cell line, under the same conditions as previously indicated. […] Dose response curves are presented on FIG. 13A and FIG. 13B. Activity of other mutants was very similar to the WT or KD.
CDK4 and CDK6 mutants with known function and unknown function taken from the COSMIC database were analyzed in the present assay and are summarized in Table 7A and Table 7B. The mutants were classified according to their activity. Table 7A and Table 7B also show the number of counts per mutant in the COSMIC database, type of cancer, and luciferase activity compared to the WT (being 100%).
With “CDK6 D163N: CDK6 mutant, literature kinase dead”, the “Luc activity (/wt)” value was found to be 408%.
The same measure, in the same setting: for “CDK6 K43M: CDK6 mutant, literature kinase dead” the value was 468%.

The experiment is the same for the next values; noted with them: predicted drug resistant CDK6 mutants, relative to WT.
In the case of “CDK6 A41V: predicted drug resistant CDK6 mutant”, the Luc. activity (/wt) was 132%.
Consider “CDK6 D104N: predicted drug resistant CDK6 mutant”, for which the Luc. activity (/wt) is 138%.
Turning to “CDK6 F98I: predicted drug resistant CDK6 mutant”, the Luc. activity (/wt) is 176%.
For the molecule “CDK6 H100Y: predicted drug resistant CDK6 mutant”, the Luc. activity (/wt) is 126%.
On to “CDK6 I19L: predicted drug resistant CDK6 mutant”, for which the Luc. activity (/wt) is 129%.

Source of the values: patent US11702666B2, “Cell-based assay for determining activity in the retinoblastoma pathway” (Medical Diagnostic Laboratories, LLC, priority 2017, dated 2023).
